Where no end group is shown, it is not given here.
Legend:
[1] = target: T1, Anti-PSMA Fab (SEQ ID NOs: 19, 20); experiment: phage binding ELISA; biotinylated PSMA Fab on neutravidin plate, clonal phage supernatant, anti-M13 HRP detection;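 further: wells were preincubated with blocking buffer either containing PSMA antigen or without it before crude phage supernatant was added, briefly incubated, then washed prior to detection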
T1 construct: also called 006 PSMA Fab
Method: (§1) Clonal phage were harvested as crude supernatants and screened via standard ELISAs. […] Prior to the addition of clonal phage. wells were incubated with blocking buffer and PSMA antigen or blocking buffer alone. Without washing or aspirating, clonal phage supernatants were then added to the wells and incubated for a short time. Wells were then washed followed by detection of bound phage using a horse radish conjugated anti-M13 antibody.

[2] = target: T1, Anti-PSMA Fab (SEQ ID NOs: 19, 20); experiment: phage binding ELISA; PSMA Fab coated wells pre-incubated with PSMA antigen as competitor, anti-M13 HRP detection
Method: as §1

[3] = target: T2, Anti-PSMA Fab (SEQ ID NOs: 19, 20); experiment: phage binding ELISA; biotinylated anti-PSMA Fab on neutravidin plate, clonal phage supernatant, anti-M13-HRP detection
T2 construct: Used biotinylated and captured on neutravidin coated plates; also called 006 PSMA Fab
Method: as §1

[4] = target: T2, Anti-PSMA Fab (SEQ ID NOs: 19, 20); experiment: phage binding ELISA; biotinylated anti-PSMA Fab on neutravidin plate, wells pre-incubated with PSMA antigen as competitor, anti-M13-HRP detection
Method: as §1

[5] = target: T3, Anti-PSMA Fab (SEQ ID NOs: 19, 20); experiment: phage binding ELISA on captured anti-PSMA Fab; competitor: PSMA antigen
T3 construct: In the phage ELISA the Fab was biotinylated and captured on neutravidin coated plates; also called 006 PSMA Fab
Method: as §1

[6] = target: T3, Anti-PSMA Fab (SEQ ID NOs: 19, 20); experiment: phage binding ELISA; clonal phage on biotinylated anti-PSMA Fab captured on neutravidin, anti-M13 HRP detection
Method: as §1

ITPICKPAWICSGF (tested as clonal phage supernatant) [Phage-1806]
Anti-PSMA Fab (SEQ ID NOs: 19, 20) signal [1]: 2.2
Anti-PSMA Fab signal in the presence of PSMA [2]: 0.0631

YERACIPNWICEGF (tested as clonal phage supernatant) [Phage-1809]
Anti-PSMA Fab (SEQ ID NOs: 19, 20) signal [1]: 1.03
Anti-PSMA Fab signal in the presence of PSMA [2]: 0.0842

TEVRCTPPWMCLGF (tested as clonal phage supernatant) [Phage-1814]
Anti-PSMA Fab (SEQ ID NOs: 19, 20) signal [1]: 2.36
Anti-PSMA Fab signal in the presence of PSMA [2]: 0.0981

VEVKCFPLWFCVGL (tested as clonal phage supernatant) [Phage-1805]
Anti-PSMA Fab (SEQ ID NOs: 19, 20) signal [1]: 2.23
Anti-PSMA Fab signal in the presence of PSMA [2]: 0.0923

VLKYCIPDWMCAGI (tested as clonal phage supernatant) [Phage-1816]
Anti-PSMA Fab (SEQ ID NOs: 19, 20) signal [1]: 2.24
Anti-PSMA Fab signal in the presence of PSMA [2]: 0.0978

PEHLCLPRWMCEGF (tested as clonal phage supernatant) [Phage-1808]
Anti-PSMA Fab (SEQ ID NOs: 19, 20) signal [1]: 1.78
Anti-PSMA Fab signal in the presence of PSMA [2]: 0.135

B1: Phage-1714 (peptide)
peptide: FVCWTFGEHIKVCR
modifications: cysteine pairing not given here; also: displayed on phage as pIII fusion, pIII sequence, linker and fusion order not given here
notes: not shown: pIII coat protein of the bacteriophage to which the peptide is fused
Anti-PSMA Fab (SEQ ID NOs: 19, 20) signal [3]: 2.51
Anti-PSMA Fab signal in the presence of PSMA [4]: 0.205

B2: Phage-1718 (peptide)
peptide: SCGWLRGEEFGWWC
modifications: cysteine pairing not given here; also: displayed on phage as pIII fusion, pIII sequence, linker and fusion order not given here
notes: also called Peptide-190; not shown: pIII coat protein of the bacteriophage to which the peptide is fused
Anti-PSMA Fab (SEQ ID NOs: 19, 20) signal [3]: 0.648
Anti-PSMA Fab signal in the presence of PSMA [4]: 0.071

B3: Phage-1717 (peptide)
peptide: HCLGPALGPVDGDC
modifications: cysteine pairing not given here; also: displayed on phage as pIII fusion, pIII sequence, linker and fusion order not given here
notes: as for B1
Anti-PSMA Fab (SEQ ID NOs: 19, 20) signal [3]: 2.33
Anti-PSMA Fab signal in the presence of PSMA [4]: 0.076

B4: Phage-1719 (peptide)
peptide: DCFYAADIHWNYCN
modifications: cysteine pairing not given here; also: displayed on phage as pIII fusion, pIII sequence, linker and fusion order not given here
notes: as for B1
Anti-PSMA Fab (SEQ ID NOs: 19, 20) signal [3]: 1.88
Anti-PSMA Fab signal in the presence of PSMA [4]: 1.15

B5: Phage-1722 (peptide)
peptide: TCLRFADLAIIHCD
modifications: cysteine pairing not given here; also: displayed on phage as pIII fusion, pIII sequence, linker and fusion order not given here
notes: also called Peptide-160; not shown: pIII coat protein of the bacteriophage to which the peptide is fused
Anti-PSMA Fab (SEQ ID NOs: 19, 20) signal [3]: 1.82
Anti-PSMA Fab signal in the presence of PSMA [4]: 0.0697

TEIRCTPQWMCLGF [Phage-1823]
Anti-PSMA Fab signal in the presence of PSMA [5]: 0.0871
Anti-PSMA Fab (SEQ ID NOs: 19, 20) signal [6]: 2.37

VLKLCVPPWMCMAQ [Phage-1827]
Anti-PSMA Fab signal in the presence of PSMA [5]: 0.0968
Anti-PSMA Fab (SEQ ID NOs: 19, 20) signal [6]: 2.32

B6: Phage-1721 (peptide)
peptide: SCFSFARLEVVPCD
modifications: cysteine pairing not given here; also: displayed on phage as pIII fusion, pIII sequence, linker and fusion order not given here
notes: as for B1
Anti-PSMA Fab (SEQ ID NOs: 19, 20) signal [3]: 1.26
Anti-PSMA Fab signal in the presence of PSMA [4]: 0.0555

IVVKCVPSWMCEGF (tested as clonal phage supernatant) [Phage-1812]
Anti-PSMA Fab (SEQ ID NOs: 19, 20) signal [1]: 2.4
Anti-PSMA Fab signal in the presence of PSMA [2]: 0.102

B7: Phage-1818 (peptide)
peptide: MERWCVPDWMCATF
modifications: cysteine pairing not given here; also: displayed on phage as pIII fusion, pIII sequence and linker not given here
Anti-PSMA Fab signal in the presence of PSMA [5]: 0.0578
Anti-PSMA Fab (SEQ ID NOs: 19, 20) signal [6]: 2.47

VEKMCRPAWMCWVM [Phage-1824]
Anti-PSMA Fab signal in the presence of PSMA [5]: 0.214
Anti-PSMA Fab (SEQ ID NOs: 19, 20) signal [6]: 2.37

B8: Phage-1712 (peptide)
peptide: IRCVGEGHDLVCIF
modifications: cysteine pairing not given here; also: displayed on phage as pIII fusion, pIII sequence, linker and fusion order not given here
notes: as for B1
Anti-PSMA Fab (SEQ ID NOs: 19, 20) signal [3]: 2.36
Anti-PSMA Fab signal in the presence of PSMA [4]: 0.072

ISKLCTPPWMCEML [Phage-1825]
Anti-PSMA Fab signal in the presence of PSMA [5]: 0.0582
Anti-PSMA Fab (SEQ ID NOs: 19, 20) signal [6]: 2.33

VERLCTPAWMCHGF (tested as clonal phage supernatant) [Phage-1815]
Anti-PSMA Fab (SEQ ID NOs: 19, 20) signal [1]: 2.36
Anti-PSMA Fab signal in the presence of PSMA [2]: 0.214

B9: Phage-1710 (peptide)
peptide: SIPCIPRDWLCPIK
modifications: cysteine pairing not given here; also: displayed as fusion to phage pIII, linker and order of fusion not given here
notes: as for B1
Anti-PSMA Fab (SEQ ID NOs: 19, 20) signal [3]: 1.89
Anti-PSMA Fab signal in the presence of PSMA [4]: 0.096

ALKLCIPFWMCEGL [Phage-1819]
Anti-PSMA Fab signal in the presence of PSMA [5]: 0.129
Anti-PSMA Fab (SEQ ID NOs: 19, 20) signal [6]: 2.44

LEPLCVPRWMCVGF (tested as clonal phage supernatant) [Phage-1803]
Anti-PSMA Fab (SEQ ID NOs: 19, 20) signal [1]: 2.36
Anti-PSMA Fab signal in the presence of PSMA [2]: 0.112

WENWCQPAWMCTGL [Phage-1826]
Anti-PSMA Fab signal in the presence of PSMA [5]: 0.0691
Anti-PSMA Fab (SEQ ID NOs: 19, 20) signal [6]: 2.33

B10: Phage-1716 (peptide)
peptide: IECAYMTDQRFWCW
modifications: cysteine pairing not given here; also: fused to phage pIII (clonal phage display)
notes: as for B1
Anti-PSMA Fab (SEQ ID NOs: 19, 20) signal [3]: 1.93
Anti-PSMA Fab signal in the presence of PSMA [4]: 0.066

WENWCTPAWMCVGF [Phage-1822]
Anti-PSMA Fab signal in the presence of PSMA [5]: 0.0932
Anti-PSMA Fab (SEQ ID NOs: 19, 20) signal [6]: 2.37

VNHWCVPTWMCAGF (tested as clonal phage supernatant) [Phage-1811]
Anti-PSMA Fab (SEQ ID NOs: 19, 20) signal [1]: 2.41
Anti-PSMA Fab signal in the presence of PSMA [2]: 0.186

B11: Phage-1821 (peptide)
peptide: IVKRCEPMWMCAGF
modifications: cysteine pairing not given here; also: displayed on phage as pIII fusion, pIII sequence and linker not given here
Anti-PSMA Fab signal in the presence of PSMA [5]: 0.264
Anti-PSMA Fab (SEQ ID NOs: 19, 20) signal [6]: 2.38

B12: Phage-1711 (peptide)
peptide: MEYCSFHRFTCVLW
modifications: cysteine pairing not given here; also: displayed on phage as pIII fusion, pIII sequence, linker and fusion order not given here
notes: as for B1
Anti-PSMA Fab (SEQ ID NOs: 19, 20) signal [3]: 1.88
Anti-PSMA Fab signal in the presence of PSMA [4]: 0.117

VVIKCKPEWMCSGF (tested as clonal phage supernatant) [Phage-1807]
Anti-PSMA Fab (SEQ ID NOs: 19, 20) signal [1]: 2.18
Anti-PSMA Fab signal in the presence of PSMA [2]: 0.0946

PERLCTPPWMCLGF [Phage-1817]
Anti-PSMA Fab signal in the presence of PSMA [5]: 0.0917
Anti-PSMA Fab (SEQ ID NOs: 19, 20) signal [6]: 2.24

ITPVCKPLWMCSGL (tested as clonal phage supernatant) [Phage-1804]
Anti-PSMA Fab (SEQ ID NOs: 19, 20) signal [1]: 2.35
Anti-PSMA Fab signal in the presence of PSMA [2]: 0.0764

TVAYCKPAWMCQGF (tested as clonal phage supernatant) [Phage-1813]
Anti-PSMA Fab (SEQ ID NOs: 19, 20) signal [1]: 2.37
Anti-PSMA Fab signal in the presence of PSMA [2]: 0.108

B13: Phage-1715 (peptide)
peptide: ILCGLYEALVSECG
modifications: cysteine pairing not given here; also: displayed on phage as pIII fusion, pIII sequence, linker and fusion order not given here
notes: as for B1
Anti-PSMA Fab (SEQ ID NOs: 19, 20) signal [3]: 2.49
Anti-PSMA Fab signal in the presence of PSMA [4]: 0.063

MVKWCTPAWMCEML [Phage-1820]
Anti-PSMA Fab signal in the presence of PSMA [5]: 0.113
Anti-PSMA Fab (SEQ ID NOs: 19, 20) signal [6]: 2.41

TTHVCIPSWMCSGF (tested as clonal phage supernatant) [Phage-1810]
Anti-PSMA Fab (SEQ ID NOs: 19, 20) signal [1]: 2.15
Anti-PSMA Fab signal in the presence of PSMA [2]: 0.0668
